Results: patent publication US20240132485A1, “HETEROCYCLIC CULLIN RING UBIQUITIN LIGASE COMPOUNDS AND USES THEREOF” (CEMM - FORSCHUNGSZENTRUM FÜR MOLEKULARE MEDIZIN GMBH, priority 2020, published 2024)

Experiments:
[1] = target: Nanoluc_DDB1 (N-terminal Nanoluc luciferase, G4S linker, DDB1 (FL)) (UniProt Q16531); assay: NanoBRET in HEK293T cells, 10 µM compound Example 3-27; class B = 3-4 fold increase
[2] = target: Nanoluc_DDB1 (N-terminal Nanoluc luciferase, G4S linker, DDB1 (FL)) (UniProt Q16531); assay: NanoBRET in HEK293T cells, 10-point titration of compound Example 3-44; class A = EC50<=0.25 µM
[3] = target: Nanoluc_DDB1 (N-terminal Nanoluc luciferase, G4S linker, DDB1 (FL)) (UniProt Q16531); assay: NanoBRET in HEK293T cells, 10 µM compound Example 3-66; class A = greater than 4-fold increase
[4] = target: Nanoluc_DDB1 (N-terminal Nanoluc luciferase, G4S linker, DDB1 (FL)) (UniProt Q16531); assay: NanoBRET in HEK293T cells, 10 µM compound Example 3-63; class B = 3-4 fold increase

Sequence of Nanoluc_DDB1 (N-terminal Nanoluc luciferase, G4S linker, DDB1 (FL)) (Q16531 other isoform, or with tags, fused parts or gaps): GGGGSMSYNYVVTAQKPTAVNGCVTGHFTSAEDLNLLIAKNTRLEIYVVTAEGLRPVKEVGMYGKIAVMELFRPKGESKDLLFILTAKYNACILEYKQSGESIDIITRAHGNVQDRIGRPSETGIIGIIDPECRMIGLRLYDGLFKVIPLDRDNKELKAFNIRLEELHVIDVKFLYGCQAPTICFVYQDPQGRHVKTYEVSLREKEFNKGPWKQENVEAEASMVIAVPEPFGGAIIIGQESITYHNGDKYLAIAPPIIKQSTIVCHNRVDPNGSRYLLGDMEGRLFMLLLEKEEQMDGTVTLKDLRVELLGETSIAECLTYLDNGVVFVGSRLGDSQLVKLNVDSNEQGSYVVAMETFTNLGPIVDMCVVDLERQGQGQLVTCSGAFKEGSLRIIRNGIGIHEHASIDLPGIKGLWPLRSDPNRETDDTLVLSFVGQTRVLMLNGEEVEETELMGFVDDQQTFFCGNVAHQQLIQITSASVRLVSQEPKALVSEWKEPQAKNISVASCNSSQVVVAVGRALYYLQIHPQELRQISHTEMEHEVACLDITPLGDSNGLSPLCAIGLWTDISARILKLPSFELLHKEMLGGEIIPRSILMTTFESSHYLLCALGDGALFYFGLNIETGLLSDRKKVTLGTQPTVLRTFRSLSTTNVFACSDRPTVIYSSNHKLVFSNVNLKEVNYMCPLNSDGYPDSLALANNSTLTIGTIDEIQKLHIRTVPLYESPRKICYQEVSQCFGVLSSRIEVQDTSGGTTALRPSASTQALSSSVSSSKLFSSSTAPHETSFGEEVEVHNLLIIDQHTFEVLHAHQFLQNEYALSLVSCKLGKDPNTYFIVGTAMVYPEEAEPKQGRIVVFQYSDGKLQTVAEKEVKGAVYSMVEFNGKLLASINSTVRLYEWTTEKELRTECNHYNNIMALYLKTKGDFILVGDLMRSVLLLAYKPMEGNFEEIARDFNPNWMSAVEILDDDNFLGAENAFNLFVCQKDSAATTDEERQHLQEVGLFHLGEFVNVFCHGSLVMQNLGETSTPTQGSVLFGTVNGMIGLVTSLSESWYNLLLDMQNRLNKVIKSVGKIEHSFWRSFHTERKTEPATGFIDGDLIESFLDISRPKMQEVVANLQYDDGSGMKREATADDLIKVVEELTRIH

NanoBRET fold increase [1]: 3 to 4 fold | EC50 [2]: < 250 nM | NanoBRET fold increase [3]: > 4 fold | NanoBRET fold increase [4]: 3 to 4 fold
Substance: HaloTag_CDK12 (N-terminal HaloTag, G4S linker, CDK12 (713-1052)) (from UniProt Q9NYV4 713-1052) (enzyme)
